Reference: patent US20250122301A1 (IBIO, published 2025)
Where a chain is given by its changes, count along the chain named. Blank lines part the entries; values can stand above or below the binder they belong to.

Assays:
[1] = target: T1, full-length CD25 (human CD25, recombinant protein used on biosensors) (human, UniProt P01589 22-213, limits assumed); test: Octet BLI, human CD25 on AR2G tip, Fab, pH 6.5
T1 construct: Printed only as Human CD25 / full-length CD25; also called CD25 antigen; alpha chain of the IL-2 receptor
T1 sequence (looked up): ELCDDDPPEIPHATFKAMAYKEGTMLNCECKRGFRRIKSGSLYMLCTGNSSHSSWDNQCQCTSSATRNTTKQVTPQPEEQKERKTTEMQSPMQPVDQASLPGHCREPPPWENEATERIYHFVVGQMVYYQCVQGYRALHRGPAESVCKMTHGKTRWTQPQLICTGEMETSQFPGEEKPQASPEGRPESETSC

[2] = target: T1, full-length CD25 (human CD25, …); test: Octet BLI, human CD25 on AR2G tip, Fab, pH 7.4
[3] = target: T2, CD25 on CD25+ cells (SUDHL-1, HEK IL-2 reporter cells, primary human regulatory T cells) (human, UniProt P01589 22-272); test: cell-based or functional assay
T2 sequence (looked up): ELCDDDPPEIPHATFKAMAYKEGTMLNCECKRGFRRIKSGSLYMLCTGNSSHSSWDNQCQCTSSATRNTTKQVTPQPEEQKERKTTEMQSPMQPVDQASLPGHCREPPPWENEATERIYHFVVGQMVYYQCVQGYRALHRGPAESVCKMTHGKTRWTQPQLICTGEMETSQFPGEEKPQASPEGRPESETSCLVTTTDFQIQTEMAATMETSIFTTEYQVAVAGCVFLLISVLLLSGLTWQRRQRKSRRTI

koff [1]: 0.00591 s⁻¹
koff [2]: 0.004 s⁻¹
pSTAT5 IC50 (1 ug/mL) [ng/ml] [3]: 0.43 ng/ml
pSTAT5 IC50 (2 ug/mL) [ng/ml] [3]: 4.77 ng/ml
pSTAT5 IC50 (5 ug/mL) [ng/ml] [3]: 40.3 ng/ml
B1: D16 Fab (Fab, V domains shown)
VH: QVQMQQSGAELVRPGTSVKISCKASGYTFTNYWLGWVKQRPGHGLEWIGDIYPGGGYTNYNEKFKGKATLTADTSSSTAYMQLSSLTSEDSAVYFCARVTPASWGQGTTLTVSS
VL: DIQMTQSQKFMSTSVGDRVSVTCKASQNVGTNVAWYQQKPGQSPKALIYSASYRYSGVPDRFTGSGSGTDFTLTISNVQSEDLAEYFCQQYNSYPWTFGGGTKLEIK
notes: Fab; also called Fab clone D16

koff [1]: 0.00536 s⁻¹
koff [2]: 0.00337 s⁻¹
pSTAT5 IC50 (1 ug/mL) [ng/ml] [3]: 0.251 ng/ml
pSTAT5 IC50 (2 ug/mL) [ng/ml] [3]: 0.217 ng/ml
pSTAT5 IC50 (5 ug/mL) [ng/ml] [3]: 0.283 ng/ml
B2: D17 Fab (Fab, V domains shown)
VH: B1 VH with V2I, M4L, S114A
VL: B1 VL with Q3L, M4L, W96L
notes: Fab; also called Fab clone D17

koff [1]: 0.00522 s⁻¹
koff [2]: 0.00452 s⁻¹
pSTAT5 IC50 (1 ug/mL) [ng/ml] [3]: 0.414 ng/ml
pSTAT5 IC50 (2 ug/mL) [ng/ml] [3]: 0.303 ng/ml
pSTAT5 IC50 (5 ug/mL) [ng/ml] [3]: 0.509 ng/ml
B3: D11 Fab (Fab, V domains shown)
VH: QIQLQQPGAELVRPGVSLKISCKGSGYTFTDYAMHWVRQSHAKSLEWIGVISTYSGDAIYNQKFKGKATMTVDKSSSTAYLELARLTSDDSAIYYCARGVTFDYWGQGTTVTVSS
VL: DIQMTQTTSSLSASLGDRVTITCRASQDISNYLEWYQQKQGKSPQLLVYNAKTLAEGVPSRFSGSGSGTQFSLKINSLQPEDFGSYYCQHHYDTPYTFGGGTKLEIK
notes: Fab; also called Fab clone D11
